Protein stability index data for 36 sequences are collected here from the supplement of paper PMC10567573.

A short description of the data set: protein stability index of a GFP-peptide fusion (GPS, HEK-293T) (PSI 1-6); higher = more stable. The following applies: c terminus: a fixed tail appended.

± gives the standard deviation.
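Further: 24-mer peptide tiles fused after GFP, lentivirally expressed, FACS-sorted into six equal bins by GFP/DsRed ratio, decoded by Illumina sequencing, PSI is the read-weighted mean bin number.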

On to MEMYNVIMTVKEDQFSALGLDPCL [SLC6A17], for which the protein stability index (treatment: DMSO) came out at 2.45 ± 0.62 and the protein stability index (treatment: MLN4924 1 uM, 8 h) came to 2.26 ± 0.15.

Regarding MGQTALAGGSSSTPTPQALYPDLS [SPSB2], the protein stability index (treatment: DMSO) turned out to be 4.46 ± 0.37 and the protein stability index (treatment: MLN4924 1 uM, 8 h) was 4.66 ± 0.37.

For the sequence MGVNAVHWFRKGLRLHDNPALKEC [CRY1], the protein stability index (treatment: DMSO) amounted to 2.53 ± 0.23 and the protein stability index (treatment: MLN4924 1 uM, 8 h) came to 2.54 ± 0.31.

With MGWFNNEVGSMKIQSGAWVCYQYP [CRYBA1], the protein stability index by setting is: (treatment: DMSO) 2.74 ± 0.73; (treatment: MLN4924 1 uM, 8 h) 2.61 ± 0.29.

MKDSMSAAEVGTGQYATTKGISQT [EPB41L3]: the protein stability index (treatment: DMSO) turned out to be 4.75 ± 0.094 and the protein stability index (treatment: MLN4924 1 uM, 8 h) was determined as 4.78 ± 0.44.

Sequence MLLDIKTRLEQEIATYRSLLEGQD [KRT15] came in with a protein stability index (treatment: DMSO) of 2.9 ± 0.34 and a protein stability index (treatment: MLN4924 1 uM, 8 h) of 3.07 ± 0.34.

In the case of MLQATAEANNLAAAASAKDIYYNN [ATL3], the protein stability index runs as follows: (treatment: DMSO) 3.15 ± 0.18; (treatment: MLN4924 1 uM, 8 h) 3.44 ± 0.38.

As to MLTRRVLQLETVLEGVVSQIDAVG [PKD2L1], the protein stability index was 2.29 ± 0.49 (treatment: DMSO) and 2.46 ± 0.51 (treatment: MLN4924 1 uM, 8 h).

In turn, MPGFPDNIRPSSSGGYWVGMSTIR [APMAP] displayed a protein stability index (treatment: DMSO) of 2.87 ± 0.38 and a protein stability index (treatment: MLN4924 1 uM, 8 h) of 2.9 ± 0.42.

For MPSPCSCMSFNPETRRLSIGLDNG [WDFY2], the protein stability index runs as follows: (treatment: DMSO) 3.19 ± 0.13; (treatment: MLN4924 1 uM, 8 h) 3.29 ± 0.25.

On to MQAQASIEGAPEVTMSSLFKHILR [SLC25A25], for which the protein stability index runs as follows: (treatment: DMSO) 2.36 ± 0.32; (treatment: MLN4924 1 uM, 8 h) 2.14 ± 0.13.

On to MQLKSPMPSSTTQKDSYQPPGNVY [SPAG8], for which the protein stability index runs as follows: (treatment: DMSO) 4.13 ± 0.17; (treatment: MLN4924 1 uM, 8 h) 4.14 ± 0.16.

Consider MRARDSVYHIECFRCSVCSRQLLP [ISL2], for which the protein stability index worked out at 2.2 ± 0.24 (treatment: DMSO) and 2.22 ± 0.35 (treatment: MLN4924 1 uM, 8 h).

On to MSFPHFGHPYRGASQFLASASSST [IRX6], for which the protein stability index turned out to be 3.25 ± 0.21 (treatment: DMSO) and 3.13 ± 0.25 (treatment: MLN4924 1 uM, 8 h).

For the sequence MSIMGNVLRFLPAFVRMKQLIEEG [GFOD1], the protein stability index by setting is: (treatment: DMSO) 2.31 ± 0.43; (treatment: MLN4924 1 uM, 8 h) 2.42 ± 0.28.

MSTFRQEDVEDHYEMGEELGSGQF [DAPK3]: the protein stability index stood at 5.43 ± 0.22 (treatment: DMSO) and 5.33 ± 0.48 (treatment: MLN4924 1 uM, 8 h).

With MSVILSMDNNRNLDLDSIIDEVRT [KRT71], the protein stability index is 2.61 ± 0.22 (treatment: DMSO) and 2.52 ± 0.59 (treatment: MLN4924 1 uM, 8 h).

For the sequence MTLAANHELMLRFKDEYKSENIKL [CCDC89], the protein stability index turned out to be 3.44 ± 0.17 (treatment: DMSO) and 3.72 ± 0.25 (treatment: MLN4924 1 uM, 8 h).

For the sequence MTTDFDLSLDNSPLLQSIHQLDFV [TRIM9], the protein stability index came to 2.7 ± 0.33 (treatment: DMSO) and 2.71 ± 0.24 (treatment: MLN4924 1 uM, 8 h).

As to MTVEKEAPDAHFTVDKQNISLWPR [CD207], the protein stability index is, setting by setting: (treatment: DMSO) 3.58 ± 0.36; (treatment: MLN4924 1 uM, 8 h) 3.86 ± 0.5.

Take MVANILNNEAFMNQEITKAFHVRR [RHOBTB2]: the protein stability index was 2.53 ± 0.27 (treatment: DMSO) and 2.5 ± 0.27 (treatment: MLN4924 1 uM, 8 h).

For MVGLILGPFGINHGIELHSDVVEY [PCMTD1], the protein stability index reads like this: (treatment: DMSO) 2.68 ± 0.65; (treatment: MLN4924 1 uM, 8 h) 2.85 ± 0.52.

MVGPLAQDPQSPMAGLRWLDSWDF [POMT2]: the protein stability index by setting is: (treatment: DMSO) 2.66 ± 0.42; (treatment: MLN4924 1 uM, 8 h) 2.75 ± 0.41.

As for MVRRLKMVVKTFMDMDQDSEEEKE [PDS5B], the protein stability index (treatment: DMSO) turned out to be 2.73 ± 0.38 and the protein stability index (treatment: MLN4924 1 uM, 8 h) amounted to 3.13 ± 0.26.

For MYASSAPPSEPVPSLEDISCNTWP [TBX5], the protein stability index stood at 3.95 ± 0.17 (treatment: DMSO) and 3.97 ± 0.22 (treatment: MLN4924 1 uM, 8 h).

In the case of NCKRERDARVKRKLRGPEPAATEA [TBX6], the protein stability index is, setting by setting: (treatment: DMSO) 4.84 ± 0.42; (treatment: MLN4924 1 uM, 8 h) 4.66 ± 0.22.

For NCPEFPPPDRTLGCWATDAAPAAG [RSPH3], the protein stability index by setting is: (treatment: DMSO) 4.4 ± 0.4; (treatment: MLN4924 1 uM, 8 h) 4.47 ± 0.3.

Turning to NCRLSEGDVMHLSQSPSVSQLSVL [PRAME], the protein stability index is, setting by setting: (treatment: DMSO) 2.29 ± 0.63; (treatment: MLN4924 1 uM, 8 h) 2.37 ± 0.065.

Turning to NEDEDLGPCEGPSKEDKDLDSSEG [SPANXN3], the protein stability index (treatment: DMSO) worked out at 5.66 ± 0.21 and the protein stability index (treatment: MLN4924 1 uM, 8 h) is 5.54 ± 0.17.

NEKIYELRVMETKPDKAVSIIECD [UFD1] showed a protein stability index (treatment: DMSO) of 4.33 ± 0.11 and a protein stability index (treatment: MLN4924 1 uM, 8 h) of 4.28 ± 0.16.

For the sequence NEPSQAETAVEGDPSGVSGATVGR [C18orf25], the protein stability index amounted to 5.66 ± 0.22 (treatment: DMSO) and 5.66 ± 0.11 (treatment: MLN4924 1 uM, 8 h).

Regarding NESMKAYHNSPAYLAYINAKSRAE [SMARCE1], the protein stability index came to 4.42 ± 0.27 (treatment: DMSO) and 4.26 ± 0.49 (treatment: MLN4924 1 uM, 8 h).

For the sequence NEYVAIKLEPIKSRAPQLHLEYRF [CSNK1G1], the protein stability index by setting is: (treatment: DMSO) 2.31 ± 0.3; (treatment: MLN4924 1 uM, 8 h) 2.53 ± 0.36.

Regarding NFPQCVLEISDQEVLEWYTAKDFI [EFHC1], the protein stability index by setting is: (treatment: DMSO) 2.51 ± 0.33; (treatment: MLN4924 1 uM, 8 h) 2.6 ± 0.45.

For the sequence NGEARQLPEDDGLEQDLQQVMVSG [ARFIP2], the protein stability index (treatment: DMSO) turned out to be 5.36 ± 0.22 and the protein stability index (treatment: MLN4924 1 uM, 8 h) worked out at 5.49 ± 0.2.

NHAIDIICGFLKERCFRGSSYPVC [OAS1] displayed a protein stability index (treatment: DMSO) of 2.88 ± 0.38 and a protein stability index (treatment: MLN4924 1 uM, 8 h) of 2.6 ± 0.44.
